Columns and labels:
[1] = tested on: CCC(=O)C(C)=O; assay: Enzyme kinetics (Lineweaver-Burk plots), Gox0644; format: biochemical, Gluconobacter oxydans; settings: other: Gox0644; substrate 0.025 to 10 mM
Method: (§1) Determination of pH and temperature optima and enzyme kinetics: The optimum pH for enzyme activities was determined by a modified method of Salusjärvi, T. et al., Appl. Microbiol. Biotechnol. 65:306-314 (2004) using the following buffer system (50 mM final concentration each): sodium acetate pH 4.5 - 6.5, potassium phosphate pH 6.5 - 8.0, Tris-HCl pH 8.0 - 10. Temperature optima for the biocatalysts were determined under standard reaction conditions at temperatures ranging from 20 - 80 °C. The Michaelis constant (Km) for the proteins was determined from purified enzyme by Lineweaver-Burk plots. Assays were performed at optimum pH for each enzyme and at 30 °C using the top substrate and a targeted substrate. The Km for each substrate was calculated using concentrations of 0.0025 to 10 mM, and the Km NAD(P)H and NAD(P) was calculated using concentrations of 0.01 to 0.5 mM
(§2) The Michaelis constants were determined from purified enzyme by Lineweaver-Burk plots. The Km and Vmax values for the substrates were calculated using concentrations of 0.025 to 10 mM, The optimal pH values and temperatures for enzyme activities are also shown in Tab. 11. Tab. 11: Summary of kinetic parameters

[2] = tested on: O=CC(=O)c1ccccc1; assay: Enzyme kinetics (Lineweaver-Burk plots), Gox0644; format: biochemical, Gluconobacter oxydans; settings: other: Gox0644; substrate 0.025 to 10 mM
Method: as §1, §2

[3] = tested on: C=CC(C)=O; assay: Enzyme kinetics (Lineweaver-Burk plots), Gox2107; format: biochemical, Gluconobacter oxydans; settings: other: Gox2107; substrate 0.025 to 10 mM
Method: as §1, §2

[4] = tested on: O=C1C=CC(=O)c2ccccc21; assay: Enzyme kinetics (Lineweaver-Burk plots), Gox2107; format: biochemical, Gluconobacter oxydans; settings: other: Gox2107; substrate 0.025 to 10 mM
Method: as §1, §2

[5] = substrate: CC=O; assay: Enzyme kinetics (Lineweaver-Burk plots), aldehyde dehydrogenase Gox1122; format: biochemical, Gluconobacter oxydans
Method: Determination of pH and temperature optima and enzyme kinetics: The optimum pH for enzyme activities was determined by a modified method of Salusjärvi, T. et al., Appl. […] Temperature optima for the biocatalysts were determined under standard reaction conditions at temperatures ranging from 20 - 80 °C. The Michaelis constant (Km) for the proteins was determined from purified enzyme by Lineweaver-Burk plots. Assays were performed at optimum pH for each enzyme and at 30 °C using the top substrate and a targeted substrate.

[6] = substrate: NC(=O)c1ccc[n+]([C@@H]2O[C@H](COP(=O)(O)OP(=O)(O)OC[C@H]3O[C@@H](n4cnc5c(N)ncnc54)[C@H](OP(=O)(O)O)[C@@H]3O)[C@@H](O)[C@H]2O)c1; assay: purified protein, by the assay type; settings: other: Gox1122; for the cofactor NADP
[7] = substrate: CC(=O)C=O; assay: Enzyme kinetics (Lineweaver-Burk plots), Gox1615; format: biochemical, Gluconobacter oxydans; settings: other: Gox1615; substrate 0.025 to 10 mM
Method: as §1, §2

[8] = substrate: CCCC(=O)C(C)=O; assay: Enzyme kinetics (Lineweaver-Burk plots), Gox1615; format: biochemical, Gluconobacter oxydans; settings: other: Gox1615; substrate 0.025 to 10 mM
Method: as §1, §2

[9] = substrate: C=CC(C)=O; assay: purified protein, by the assay type; settings: other: Gox0502; substrate 0.025 to 10 mM
[10] = substrate: C=CC(C)=O; assay: Enzyme kinetics (Lineweaver-Burk plots), Gox2684; format: biochemical, Gluconobacter oxydans; settings: other: Gox2684; substrate 0.025 to 10 mM
Method: as §1, §2

[11] = other: Gox1122, aldehyde concentrations from 0.0025 to 10 mM
[12] = other: Tab. 11, Gox1122, substrate 0.025 to 10 mM

With Gox0644 (Gluconobacter oxydans 621H) the Km [1] was 5600 µM, the Vmax [1] was 79.0 µmol/min/mg and the Km [2] was 4700 µM. The Vmax [2] was 93.0 µmol/min/mg.

Gox2107 (Gluconobacter oxydans 621H) gave a Km [3] of 3800 µM, a Vmax [3] of 119 µmol/min/mg and a Km [4] of 10 µM. For the same molecule, the Vmax [4] was 217 U/mg protein.

B1: Gox1122 (Gluconobacter oxydans 621H) (protein)
chain: MAYATINPYTGETLKTFPEATDQEVQTALTEAYDAFKSWRHTPFAERAKIMTAAANILRRDIDKYSKLLTLEMGKIYAEAKAETILSAEIFEYYAKNAEELLKAEKLPVADPKEGEAVLIHQPQGIVFAIEPWNFPFYQIARIIAPQLSAGNTVILKHASNVPQCAAAFDDLMKEAGLPKGGFRNLYAARHHTETILKDPRVCGVALTGSEGAGAVVAGIAAQALKKSTMELGGSDAFLVLDDADLEKTAKWAAFGRHWNAGQVCVSAKRLIVADAVYDRFVELYKAEVAKLIPGDPMDPKTTLAPLSSQKAADDLKAQVEEAKKHGAVVEAIGPSVPEKGAFFQPLLMTNLHENNEARLWEFFGPVTQLYRAKDDADAIRIANDSPFGLGGSVFTKDTQRGVKVAEQIYTGMVYINHPTMVKADLPFGGVARSGYGRELIGLGIKEFVNHKLIDVVDIDAPF
With B1 the Km [5, 11] was 255 µM, the Vmax [5, 11] was 196 U/mg protein and the Km [5, 12] was 200 µM. It also gave a Vmax [5, 12] of 196 µmol/min/mg and a Km [6] of 73 µM.

B2: Gox1615 (Gluconobacter oxydans 621H) (protein)
chain: MASDTIRIPGIDTPLSRVALGTWAIGGWMWGGPDDDNGVRTIHAALDEGINLIDTAPVYGFGHSEEIVGRALAEKPNKAHVATKLGLHWVGEDEKNMKVFRDSRPARIRKEVEDSLRRLRVETIDLEQIHWPDDKTPIDESARELQKLHQDGKIRALGVSNFSPEQMDIFREVAPLATIQPPLNLFERTIEKDILPYAEKHNAVVLAYGALCRGLLTGKMNRDTTFPKDDLRSNDPKFQKPNFEKYLAAMDEFEKLAEKRGKSVMAFAVRWVLDQGPVIALWGARKPGQVSGVKDVFGWSLTDEEKKAVDDILARHVPNPIDPTFMAPPARD
B2 showed a Km [7] of 3800 µM, a Vmax [7] of 22.0 µmol/min/mg and a Km [8] of 3200 µM. It also gave a Vmax [8] of 6.0 µmol/min/mg.

B3: Gox0502 (Gluconobacter oxydans 621H) (protein)
chain: MPTLFDPIDFGPIHAKNRIVMSPLTRGRADKEAVPTPIMAEYYAQRASAGLIITEATGISREGLGWPFAPGIWSDAQVEAWKPIVAGVHAKGGKIVCQLWHMGRMVHSSVTGTQPVSSSATTAPGEVHTYEGKKPFEQARAIDAADISRILNDYENAARNAIRAGFDGVQIHAANGYLIDEFLRNGTNHRTDEYGGVPENRIRFLKEVTERVIAAIGADRTGVRLSPNGDTQGCIDSAPETVFVPAAKLLQDLGVAWLELREPGPNGTFGKTDQPKLSPQIRKVFLRPLVLNQDYTFEAAQTALAEGKADAIAFGRKFISNPDLPERFARGIALQPDDMKTWYSQGPEGYTDYPSATSGPN
Work on B3 yielded a Km [9] of 100 µM and a Vmax [9] of 21.0 µmol/min/mg.

B4: Gox2684 (Gluconobacter oxydans 621H) (protein)
chain: MTSLFEPIELGSIYAKNRILMAPLTRGRGTRDHVPTPIMAEYYAQRAGAGLIISEATGISREGLGWPYAPGLWSQEQVEAWKPITAAVHAKGGKIVAQLWHMGRMVHSSVTGQQPVSCSATKAPEALHTYDGKQAPEVARPLTKEDIARILNDYENAARNALQAGFDGVQIHAANGYLIDEFLRDGTNHRSDEYGGSPENRIRFLREVTERVIATIGAHKTSVRLSPNGDTVGCIDSHPEQVFVPAAKLLNDLDIAFLELREPGPNGTFGKTDQPKLHGPIREVFRKPLVLNQDYTREEAIETVATGVADAISFGRPFLANPDLVRRLEDNLPQNKDDIRTWYSQGAEGYTDYPLAR
B4 gave a Km [10] of 300 µM and a Vmax [10] of 11.3 µmol/min/mg.

— patent EP2119770B1, “Production of alpha-oxyfunctionalized carbonyl compounds” (priority 2008, dated 2009)
